In paper PMC9286290, “Active PD-L1 incorporation within HIV virions functionally impairs T follicular helper cells” (PLoS Pathogens, 2022):

Molecular target: T1, recombinant full-length PD-L1 protein (Phe19-Thr290) (UniProt Q9NZQ7 19-290)
T1 construct: Programmed Death-Ligand 1 (PD-L1), residues Phe19-Thr290; also called flPD-L1; source: bought: Amsbio (TP710226)
Assay: BLI; FortéBio Octet K2; p17 or p24 immobilised on aminopropylsilane biosensors, saturated with BSA; association and dissociation 8 min each; PBS with 0.01% BSA and 0.002% Tween-20, 1,000 rpm; for kinetics flPD-L1 from 0 to 450 nM, BSA as reference, 1:1 model
Conditions: both partners purified

T1 sequence (Q9NZQ7 19-290): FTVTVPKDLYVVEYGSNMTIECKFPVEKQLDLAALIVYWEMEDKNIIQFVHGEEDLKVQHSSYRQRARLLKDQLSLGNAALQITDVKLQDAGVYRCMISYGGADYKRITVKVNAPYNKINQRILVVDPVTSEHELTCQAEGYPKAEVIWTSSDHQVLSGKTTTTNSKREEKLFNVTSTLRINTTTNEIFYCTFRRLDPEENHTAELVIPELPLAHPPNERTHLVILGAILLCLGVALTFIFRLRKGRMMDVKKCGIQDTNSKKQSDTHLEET

B1: p17 HIV matrix protein (natural protein)
chain: GARASVLSGGELDRWEKIRLRPGGKKKYKLKHIVWASRELERFAVNPGLLETSEGCRQILGQLQPSLQTGSEELRSLYNTVATLYCVHQRIEIKDTKEALDKIEEEQNKSKKKAQQAAADTGHSNQVSQNY
Kd: 0.3 nM
